Laboratory results published in patent US20250027068.

Target: pooled human IgG

B1: PRT-20 (protein)
chain: MANQEIRYSEATPYHITSVWTKGVTPPANFTQGEDVFHAPYVPNQGWYDITKTFNGKDDLLCGAATAGNMLHWWFDQNKDQIERYLKEHPEKQKINFNGEQMFDVKEAIDTKDSQTDSKLFNYFKEKAFPYLSTKHLGVFPDHVLDMFINGYRLSLTNHGPTPVKEQSKDPRGGIFDAVFTRGDQSTLLTSRHDFKEKTLKEISDLIKKELQEGKALGISHTYANVRINHVINLWGADFNSEGNLEAIYVTDSDSNASIGMKKYYVGVNSAGKVAISAKEIEDDNIGAQVLGLFTLSTGKDIWEQTN
- Enzyme Activity Endpoint Assay: Fab′2: 48 ng/µL
- Enzyme Activity Endpoint Assay: Fc: 124 ng/µL
- Enzyme Activity Endpoint Assay: IgG: 15 ng/µL
- Enzyme Activity Endpoint Assay: scIgG: 13 ng/µL

B2: PRT-21 (protein)
chain: MANQEIRYSEVSPSTVTSVWTKGVTPPTNFTYGEDVLHAPYVANQGWYDITKTFNGKDDLLCGAATAGNMLHWWFDQNKEQIENYLKKHPEKQKINFNGEQMFDVKEAIDTKDSQLDSKLFEYFKEKAFPYLSTKHLGVFPDHVIDMFINGYRLSLTNHGPTPVKRGSKDPRGGIFDAVFTRGDQSKLLTNRHDFKEKTLKEISDLIKQELTEGKALGISHTYANVRINHVINLWGADFDAEGNLEAIYVTDSDSNASIGMKKYFVGVNSNGKVAISAKEIEEDNIGAQVLGLFTLSTGQDIWNQTN
- Enzyme Activity Endpoint Assay: Fab′2: 33 ng/µL
- Enzyme Activity Endpoint Assay: Fc: 111 ng/µL
- Enzyme Activity Endpoint Assay: IgG: 23 ng/µL
- Enzyme Activity Endpoint Assay: scIgG: 28 ng/µL

B3: PRT-19 (protein)
chain: MANQEIRYSEESPSVVTSVWTKGVTPPANFTYGEDVFHAPYIANQGWYDITKTFNGKDDLLCGAATAGNMLHWWFDQNKDEIEAYLKKHPEKQKINFNGEQMFDVKEAIDTKDDQTNSKLFNYFKDKAFPYLSTKHLGVFPDHVLDMFINGYRLNLTNHGPTPVKEGSKDPRGGIFDAVFTRGDQSKLLTSRHDFKEKTLKEISDLIKQELTEGKALGLSHTYANVRINHVINLWGADFNSEGNLKAIYVTDSDSNASIGMKKYFVGVNAAGKVAISAKEIKDDNIGAQVLGLFTLSTGQDIWNQTN
- Enzyme Activity Endpoint Assay: Fab′2: 42 ng/µL
- Enzyme Activity Endpoint Assay: Fc: 108 ng/µL
- Enzyme Activity Endpoint Assay: IgG: 13 ng/µL
- Enzyme Activity Endpoint Assay: scIgG: 13 ng/µL

B4: PRT-227 (protein)
chain: MEVVEVWPYGQNPNGKTEILSQTEDSESLQRLRDIEDFQAEKKMQNVVYTKWLDGVDVKDHDFRKIVDGNIAYYATPLLNGRGFYDINKDFNRDSDKCAAAVAANMFHYWLDINRDNVDRFLRQNPEKHGIIELPDGQLKLSDFLNTYESDHGYRDKSKLFDFISNNFNGPVWTDKLLDNYINGYAYNYKYGRTIEDPTKNTSKINFFKEVFNEKILTNNHSIRNQNEFSVLLSEALYTGKAIGLSYGPAGLRHSLGHIISVWGADLDADGNVVAIYVTDSDDKKLTIGDERVGLKRYKISTDDENRLRLTAYEETHNTGGQIRGLYTLDTGKYAWADYFDKTEQTGTDQAEQLEHHHHHH
- Enzyme Activity Endpoint Assay (purified): Fab'2: 22 ng/µL
- Enzyme Activity Endpoint Assay (purified): Fc: 331 ng/µL
- Enzyme Activity Endpoint Assay (purified): IgG: 880 ng/µL
- Enzyme Activity Endpoint Assay (purified): scIgG: 492 ng/µL

B5: PRT-230 (protein)
chain: MEVVEVWPYGQNPNGKTEILSQTEDSESLQRLRDIEDFQAEKKMQNVVYTKWLDGVDVKDHDFRKIVDGNIAYYATPLLNGRGFYDINKDFNRDSDKCAAAVAANMFHYWLDINRDNVDRFLRQNPEKHGIIELPDGQLKLSDFLNTYESDNGYRDKSKLFDFISNNFNGPVWTDKLLDNYINGYAYNYKYGRTIEDPTKNTSKINFFKEVFNEKILTNNHSIRNQNEFSVLLSEALYTGKAIGLSYGPAGLRHSLGHIISVWGADLDADGNVVAIYVTDSDDKKLTIGDERVGLKRYKISTDDENRLRLTAYEETHNTGGQIRGLWTLDTGKYAWADYFDKTEQTGTDQAEQLEHHHHHH
- Enzyme Activity Endpoint Assay (purified): Fab'2: 699 ng/µL
- Enzyme Activity Endpoint Assay (purified): Fc: 454 ng/µL
- Enzyme Activity Endpoint Assay (purified): IgG: 513 ng/µL
- Enzyme Activity Endpoint Assay (purified): scIgG: 396 ng/µL

B6: PRT-231 (protein)
chain: MEVVEVWPYGQNPNGKTEILSQTEDSESLQRLRDIEDFQAEKKMQNVVYTKWLDGVDVKDHDFRKIVDGNIAYYATPLLNGRGFYDINKDFNRDSDKCAAAVAANMFHYWLDINRDNVDRFLRQNPEKHGIIELPDGQLKLSDFLNTYESDHGYRDKSKLFDFISNNFNGPVWTDKLLDNYINGYAYNYKYGRTIEDPTKNTSKINFFKEVFNEKILTNNHSIRNQNEFSVLLSEALYTGKAIGLSYGPAGLRHSLGHIISVWGADLDADGNVVAIYVTDSDDKKLTIGDERVGLKRYKISTDDENRARLTAYEETHNTGGQIRGLWTLDTGKYAWADYFDKTEQTGTDQAEQLEHHHHHH
- Enzyme Activity Endpoint Assay (purified): Fab'2: 176 ng/µL
- Enzyme Activity Endpoint Assay (purified): Fc: 388 ng/µL
- Enzyme Activity Endpoint Assay (purified): IgG: 465 ng/µL
- Enzyme Activity Endpoint Assay (purified): scIgG: 313 ng/µL

B7: PRT-229 (protein)
chain: MEVVEVWPYGQNPNGKTEILSQTEDSESLQRLRDIEDFQAEKKKQNVVYTKWLDGVDVKDHDFRKIVDGNIAYYATPLLNGRGFYDINKDFNRDSDKCAAAVAANMFHYWLDINRDNVDRFLRQNPEKHGIIELPDGQLKLSDFLNTYESDHGYRDKSKLFDFISNNFNGPVWTDKLLDNYINGYAYNYKYGRTIEDPTKNTSKINFFKEVFNEKILTNNHSIRNQNEFSVLLSEALYTGKAIGLSYGPAGLRHSLGHIISVWGADLDADGNVVAIYVTDSDDKKLTIGDERVGLKRYKISTDDENRLRLTAYEETHNTGGQIRGLWTLDTGKYAWADYFDKTEQTGTDQAEQLEHHHHHH
- Enzyme Activity Endpoint Assay (purified): Fab'2: 691 ng/µL
- Enzyme Activity Endpoint Assay (purified): Fc: 243 ng/µL
- Enzyme Activity Endpoint Assay (purified): IgG: 1270 ng/µL
- Enzyme Activity Endpoint Assay (purified): scIgG: 294 ng/µL

B8: PRT-232 (protein)
chain: MEVVEVWPYGQNPNGKTEILSQTEDSESLQRLRDIEDFQAEKKMQNVVYTKWLDGVDVKDHDFRKIVDGNIAYYATPLLNGRGFYDINKDFNRDSDKCAAAVAANMFHYWLDINRDNVDRFLRQNPEKHGIIELPDGQLKLSDFLNTYESDHGYRDKSKLFDFISNNFNGPVWTDKLLDNYINGYAYNYKYGRTIEDPTKNTSKINFFKEVFNEKILTNNHSIRNQNEFSVLLSEALYTGKAIGLSYGPAGLRHSLGHIISVWGADLDADGNVVAIYVTDSDDKKLTIGDERVGLKRYKISTDDENRLRLTAYEETHNTGGQIRGLWTLDTGKEAWADYFDKTEQTGTDQAEQLEHHHHHH
- Enzyme Activity Endpoint Assay (purified): Fab'2: 40 ng/µL
- Enzyme Activity Endpoint Assay (purified): Fc: 283 ng/µL
- Enzyme Activity Endpoint Assay (purified): IgG: 624 ng/µL
- Enzyme Activity Endpoint Assay (purified): scIgG: 393 ng/µL

B9: PRT-228 (protein)
chain: MEVVEVWPYGQNPNGKTEILSQTEDSESLQRLRDIEDFQAEKKMQNVVYTKWLDGVDVKDHDFRKIVDGNIAYYATPLLNGRGFYDINKDFNRDSDKCAAAVAANMFHYWLDINRDNVDRFLRQNPEKHGIIELPDGQLKLSDFLNTYESDHGYRDKSKLFDFISNNFNGPVWTDKLLDNYINGYAYNYKYGRTIEDPTKNTSKINFFKEVFNEKILTNNHSIRNQNEFSDLLSEALYTGKAIGLSYGPAGLRHSLGHIISVWGADLDADGNVVAIYVTDSDDKKLTIGDERVGLKRYKISTDDENRLRLTAYEETHNTGGQIRGLWTLDTGKYAWADYFDKTEQTGTDQAEQLEHHHHHH
- Enzyme Activity Endpoint Assay (purified): Fab'2: 195 ng/µL
- Enzyme Activity Endpoint Assay (purified): Fc: 583 ng/µL
- Enzyme Activity Endpoint Assay (purified): IgG: 767 ng/µL
- Enzyme Activity Endpoint Assay (purified): scIgG: 557 ng/µL
